From US20150147272A1, “RADIO-PHARMACEUTICAL COMPLEXES” (Algeta ASA, priority 2012, published 2015)

How the values were obtained:
[1] = target: T1, CD33-positive HL-60 cells (Homo sapiens, UniProt P20138); assay: Binding to CD33-positive HL-60 cells by flow cytometry; settings: compared with AGC0700
T1 construct: endogenous in cells; host or cells: HL-60 cells
Experimental: Binding to CD33-positive HL-60 cells were studied by flow cytometry. The determination of EC50 based on the plotted curve gives an approximate value for the affinity. The commercially available mouse anti human CD33 (BD Pharmingen; #555450, 1 mg/mL) was used as a reference antibody for assessment of the affinity, including a setup with a 50:50 mixture with the mAb to be analyzed. This assay was also used to confirm that target binding affinity was not negatively affected by conjugation with the chelator.
HL-60 cells were grown in Iscove's Modified Dulbecco's Medium (IMDM; Invitrogen; #12440-046) in the presence of 20% of fetal bovine serum and penicillin/streptomycin. Approximately 20 mL cell culture was harvested by centrifugation at 4° C. for 5 min at 300 g. […] Subsequently, 20 μL of the preparation of resuspended cells was diluted 1:500 in Coulter Isoton II Diluent, and counted using a Beckman Coulter Z2 instrument (Beckman Coulter; CA, USA). […]
The mAb or conjugate to be analyzed was prepared fresh form frozen stock by shifting the storage buffer to PBS, kept at 4° C., and used within a few days after preparation. […] All samples were analysed in 96-well round or conical bottom plates. Fluorescent signals were recorded on a Beckham Coulter Cell lab Quant SC flow cytometer (Beckman Coulter; CA, USA). […]

[2] = system: CD33 positive HL-60 cells; assay: Th-227-induced in vitro cell cytotoxicity (CellTiter-Glo ATP viability); format: cell-based, human; settings: 3 nM or 0.3 nM, specific activity 44 kBq/μg, followed to day 7
Experimental: In vitro cell cytotoxicity was investigated in CD33 positive HL-60 cells. AGC0715 and the control trastuzumab conjugated AGC0015 were used to chelate Th-227 to a specific activity of 44 kBq/μg. HL-60 cells were grown at 37° C. with 5% CO2, and split 1:5 three times a week. The day before the assay the culture medium (Iscove's Modified Dulbecco's Medium (IMDM) with 20% FBS and 1% Penicillin/Streptomycin) was replaced by new medium and the volume adjusted to give 400 000 cells per mL.
About, 1 600 000 cell (4 mL) were added to each well in a 6 well plate. The plate was incubated until next day for addition of labelled mAb, or culture medium. After adding labelled mAb, or culture medium, the plate was incubated for 4 additional hours. In one experiment AGC0715 or trastuzumab-AGC0015 was added to each well to a final concentration of 3 nM. In another experiment the final concentration was 0.3 nM.
Following incubation, the cells were washed twice in culture medium, and the ATP in the supernatant and in the pellet was measured. The cells were then split 1:2 and incubated in culture medium at 37° C. with 5% CO2. The same procedure, but with only one wash, was repeated at days 2, 4, and 7.

T1 sequence (P20138 18-364): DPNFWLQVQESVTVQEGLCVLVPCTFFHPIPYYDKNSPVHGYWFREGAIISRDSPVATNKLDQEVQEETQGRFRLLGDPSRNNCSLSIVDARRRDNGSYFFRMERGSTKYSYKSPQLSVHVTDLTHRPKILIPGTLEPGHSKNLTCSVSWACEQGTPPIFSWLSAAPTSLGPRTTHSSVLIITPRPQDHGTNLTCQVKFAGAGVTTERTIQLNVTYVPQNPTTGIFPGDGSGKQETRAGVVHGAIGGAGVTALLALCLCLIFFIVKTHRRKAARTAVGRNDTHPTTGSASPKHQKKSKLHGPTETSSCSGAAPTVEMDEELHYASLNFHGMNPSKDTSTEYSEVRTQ

B1: AGC0715: AGC0700 conjugated to the water soluble chelator AGC0015 (12) (conjugate)
heavy: QVQLVQSGAEVKKPGSSVKVSCKASGYTFTDYNMHWVRQAPGQGLEWIGYIYPYNGGTGYNQKFKSKATITADESTNTAYMELSSLRSEDTAVYYCARGRPAMDYWGQGTLVTVSSASTKGPSVFPLAPSSKSTSGGTAALGCLVKDYFPEPVTVSWNSGALTSGVHTFPAVLQSSGLYSLSSVVTVPSSSLGTQTYICNVNHKPSNTKVDKKVEPKSCDKTHTCPPCPAPELLGGPSVFLFPPKPKDTLMISRTPEVTCVVVDVSHEDPEVKFNWYVDGVEVHNAKTKPREEQYNSTYRVVSVLTVLHQDWLNGKEYKCKVSNKALPAPIEKTISKAKGQPREPQVYTLPPSRDELTKNQVSLTCLVKGFYPSDIAVEWESNGGQPENNYKTTPPVLDSDGSFFLYSKLTVDKSRWQQGNVFSCSVMHEALHNHYTQKSLSLSPG
light: DIQMTQSPSSLSASVGDRVTITCRASESVDNYGISFMNWFQQKPGKAPKLLIYAASNQGSGVPSRFSGSGSGTDFTLTISSLQPDDFATYYCQQSKEVPWTFGQGTKVEIKRTVAAPSVFIFPPSDEQLKSGTASVVCLLNNFYPREAKVQWKVDNALQSGNSQESVTEQDSKDSTYSLSSTLTLSKADYEKHKVYACEVTHQGLSSPVTKSFNRGEC
modifications: chelator AGC0015 (12) conjugated; site not stated; none, one or two chelators on a chain
For B1, the binding affinity [1] was “comparable to the non-conjugated AGC0700”.

B2: AGC0715-Th-227: antibody-conjugate AGC0715 chelated with Th-227 (conjugate)
heavy: QVQLVQSGAEVKKPGSSVKVSCKASGYTFTDYNMHWVRQAPGQGLEWIGYIYPYNGGTGYNQKFKSKATITADESTNTAYMELSSLRSEDTAVYYCARGRPAMDYWGQGTLVTVSSASTKGPSVFPLAPSSKSTSGGTAALGCLVKDYFPEPVTVSWNSGALTSGVHTFPAVLQSSGLYSLSSVVTVPSSSLGTQTYICNVNHKPSNTKVDKKVEPKSCDKTHTCPPCPAPELLGGPSVFLFPPKPKDTLMISRTPEVTCVVVDVSHEDPEVKFNWYVDGVEVHNAKTKPREEQYNSTYRVVSVLTVLHQDWLNGKEYKCKVSNKALPAPIEKTISKAKGQPREPQVYTLPPSRDELTKNQVSLTCLVKGFYPSDIAVEWESNGGQPENNYKTTPPVLDSDGSFFLYSKLTVDKSRWQQGNVFSCSVMHEALHNHYTQKSLSLSPG
light: DIQMTQSPSSLSASVGDRVTITCRASESVDNYGISFMNWFQQKPGKAPKLLIYAASNQGSGVPSRFSGSGSGTDFTLTISSLQPDDFATYYCQQSKEVPWTFGQGTKVEIKRTVAAPSVFIFPPSDEQLKSGTASVVCLLNNFYPREAKVQWKVDNALQSGNSQESVTEQDSKDSTYSLSSTLTLSKADYEKHKVYACEVTHQGLSSPVTKSFNRGEC
modifications: chelator AGC0015 (12) conjugated, chelating Th-227; site not stated
For B2, the “cellular toxicity (cell viability by ATP)” value [2] was “resulted in cellular toxicity”.
